Reference: publication PMC7182444 (Science (New York, N.Y.), 2020)

How the values were obtained:
[1] = target: the molecule itself; assay: SDS-PAGE and SDD-AGE with western blotting
[2] = target: Orb2 filaments purified from adult heads (Drosophila melanogaster (endogenous in …, UniProt Q9VSR3 1-704)); assay: seeded aggregation

binding result [2]: binds
B1: Orb2 (Drosophila CPEB) purified from adult heads (natural protein)
chain: MDSLKLPKANSATSSASGSNSNLSGSTSASASAATSPTSSGTAVGGILSGAPKSPPGLGSSTPISVRFNANEESLDDILQSFHHSKHSPSGGASGGGDASPTSNLLGMKNNGLGLVVGNCDSLSSSPSQPQMHAGSASLFGNDEVSLRNNFMQAGGFFNRKSCGGLPNLNLNKPPQLHQQQHQQQHQQHQQHQQQQQLHQHQQQLSPNLSALHHHHQQQQQLRESGGSHSPSSPGGGGGGSPYNGSQAGCSSGGISPIPPQMGVSPKYRRSISFPIKGNSPTAIYGNMHMDGMGSGHMNIPTLSIGNGGGGGSTGMVSAGATGGGDAPYLGNSYGNMMTSNGQMHHGGGLDNSLCDYMRNMSLGGNGGGDGSNSMSLMQDRMRVMGGPKHLSEADAMAIAASGNDPSVYLNALKMGSPSRLSPHSPHSPIQGGNGGNVGDGTARFSRKVFVGGLPPDIDEDEITTSFRRFGPLVVDWPHKAESKSYFPPKGYAFLLFQDESSVQQLIDSCITDEDKLYLCVSSPTIKDKAVQIRPWRLADADYVLDATMSLDPRKTVFVGGVPRPLKAFELAMIMDRLYGGVCYAGIDTDPELKYPKGAGRVAFSNQQSYIAAISARFVQLQHGDIDKRVEVKPYVLDDQMCDECEGQRCGGKFAPFFCANVTCLQYYCEHCWAVIHSRPGREYHKPLVKEGADRPRAVPFRWC
binding result [1]: binds
